# Test results reported in patent US4614714A.
# B1: novel L-glutamic acid oxidase (Streptomyces sp.) (protein)
# chain 1: ANEMTYEQLARELLLVGPAPTNEDLKLRYLDVLIDNGLNPPGPPKRILIVGAGIAGLVAGDLLTRAGHDVTILEANANRVGGRIKTFHAKKGEPSPFADPAQYAEAGAMRLPSFHPLTLALIDKLGLKRRLFFNVDIDPQTGNQDAPVPPVFYKSFKDGKTWTNGAPSPEFKEPDKRNHTWIRTNREQVRRAQYATDPSSINEGFHLTGCETRLTVSDMVNQALEPVRDYYSVKQDDGTRVNKPFKEWLAGWADVVRDFDGYSMGRFLREYAEFSDEAVEAIGTIENMTSRLHLAFFHSFLGRSDIDPRATYWEIEGGSRMLPETLAKDLRDQIVMGQRMVRLEYYDPGRDGHHGELTGPGGPAVAIQTVPEGEPY
# chain 2: AATQTWTGDLAIVTIPFSSLRFVKVTPPFSYKKRRAVIETHYDQATKVLLEFSRRWWEFTEADWKRELDAIAPGLYDYYQQWGEDDAEAALALPQSVRNLPTGLLGAHPSVDESRIGEEQVEYYRNSELR
# chain 3: GGVRPATNAYGGGSTTDNPNRFMYYPSHPVPGTQGGVVLAAYSWSDDAARWDSFDDAERYGYALENLQSVHGRRIEVFYTGAGQTQSWLRDPYACGEAAVYTPHQMTAFHLDVVRPEGPVYFAGEHVSLKHAWIEGAVETAVRAAIAVNEAPVGDTGVTAAAGRRGAAAATEPMREEALTS
# Substrate: N[C@@H](CC(=O)O)C(=O)O
# Assay: purified protein, by the assay type
# Conditions: other: pH 7.4, 30.0 °C
# Description: The concentration of each substrate was 10 mM, and the reactions were carried out at pH 7.4 (0.1 M potassium phosphate buffer) and pH 6.0 (0.1 M acetate buffer).
# That is, 1 ml of 0.1 M potassium phosphate buffer (pH 7.4) containing 10 mM sodium L-glutamate was charged into an oxygen electrode cell and 10 μl of an enzyme solution was added thereto to measure the oxygen consumption rate. One unit of enzyme was determined as the amount of enzyme which consumes 1μ mol of oxygen per minute at 30° C. in the absence of catalase (unit: hereinafter abbreviated as "U").
protein,measurement,value
B1,Km,29 mM
